Source: patent publication EP4309676A1 (Emergence Therapeutics AG, dated 2024)

T1: N-terminal Flag-tagged human Nectin-4 expressed on transfected MDA-MB231 cells (human, UniProt Q96NY8 32-510)
T1 construct: whole, on cells; also called PVRL4; not shown: N-terminal Flag tag
T1 sequence (looked up): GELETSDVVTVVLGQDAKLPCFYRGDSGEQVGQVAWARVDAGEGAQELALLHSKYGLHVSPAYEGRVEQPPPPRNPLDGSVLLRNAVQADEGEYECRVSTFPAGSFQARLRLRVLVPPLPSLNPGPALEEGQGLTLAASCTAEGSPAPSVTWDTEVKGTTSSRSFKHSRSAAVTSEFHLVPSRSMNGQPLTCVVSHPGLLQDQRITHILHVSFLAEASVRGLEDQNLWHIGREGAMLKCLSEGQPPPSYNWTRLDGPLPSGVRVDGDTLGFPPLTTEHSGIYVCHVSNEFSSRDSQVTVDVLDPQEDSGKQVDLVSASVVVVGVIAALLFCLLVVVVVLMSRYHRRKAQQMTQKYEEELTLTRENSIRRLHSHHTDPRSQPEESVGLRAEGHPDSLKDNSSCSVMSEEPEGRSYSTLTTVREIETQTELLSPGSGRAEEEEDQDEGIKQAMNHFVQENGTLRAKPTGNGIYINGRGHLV

T2: human Nectin-4 on cells (CHO cells transfected with human Nectin-4 cDNA); normal differentiated human … (human, UniProt Q96NY8 32-510)
T2 construct: whole, on cells
T2 sequence (looked up): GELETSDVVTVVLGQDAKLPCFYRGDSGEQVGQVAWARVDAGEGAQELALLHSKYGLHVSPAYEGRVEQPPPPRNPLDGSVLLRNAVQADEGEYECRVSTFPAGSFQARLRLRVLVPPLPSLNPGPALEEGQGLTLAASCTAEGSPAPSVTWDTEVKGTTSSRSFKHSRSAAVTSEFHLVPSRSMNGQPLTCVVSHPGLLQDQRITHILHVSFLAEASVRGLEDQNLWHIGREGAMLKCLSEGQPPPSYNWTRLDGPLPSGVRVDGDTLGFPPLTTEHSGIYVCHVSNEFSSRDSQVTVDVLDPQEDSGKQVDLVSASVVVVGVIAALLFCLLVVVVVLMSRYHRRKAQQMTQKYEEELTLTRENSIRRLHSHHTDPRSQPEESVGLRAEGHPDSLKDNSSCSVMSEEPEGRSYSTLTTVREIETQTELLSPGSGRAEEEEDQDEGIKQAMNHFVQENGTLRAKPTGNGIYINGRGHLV

T3: Nectin-4 IgV-like domain Fc fusion recombinant protein (human, UniProt Q96NY8 32-147, limits assumed)
T3 construct: domain: IgV-like domain; also called Nec4-V; Nectin-4-V-Fc; not shown: Fc part
T3 sequence (looked up): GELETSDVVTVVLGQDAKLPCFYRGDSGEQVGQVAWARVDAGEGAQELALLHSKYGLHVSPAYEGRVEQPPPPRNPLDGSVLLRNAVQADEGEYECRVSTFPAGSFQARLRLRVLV

T4: Nectin-1 extracellular domain Fc fusion recombinant protein (UniProt Q15223 31-355, limits assumed)
T4 construct: extracellular domain; also called Nec1-VCC; Nectin-1-VCC-Fc; not shown: Fc part
T4 sequence (looked up): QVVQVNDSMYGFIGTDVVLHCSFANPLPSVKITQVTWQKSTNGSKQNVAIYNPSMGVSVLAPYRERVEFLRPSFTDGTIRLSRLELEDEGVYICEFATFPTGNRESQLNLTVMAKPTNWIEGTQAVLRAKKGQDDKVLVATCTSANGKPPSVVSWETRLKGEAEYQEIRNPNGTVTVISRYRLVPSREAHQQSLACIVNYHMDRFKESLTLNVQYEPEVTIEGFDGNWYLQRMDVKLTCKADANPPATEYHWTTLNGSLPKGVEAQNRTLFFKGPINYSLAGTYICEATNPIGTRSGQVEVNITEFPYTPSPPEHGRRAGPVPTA

T5: Nectin-4 extracellular domain Fc fusion recombinant protein (human, UniProt Q96NY8 32-349)
T5 construct: extracellular domain; also called Nec4-VCC; Nectin-4-VCC-Fc; not shown: Fc part
T5 sequence (looked up): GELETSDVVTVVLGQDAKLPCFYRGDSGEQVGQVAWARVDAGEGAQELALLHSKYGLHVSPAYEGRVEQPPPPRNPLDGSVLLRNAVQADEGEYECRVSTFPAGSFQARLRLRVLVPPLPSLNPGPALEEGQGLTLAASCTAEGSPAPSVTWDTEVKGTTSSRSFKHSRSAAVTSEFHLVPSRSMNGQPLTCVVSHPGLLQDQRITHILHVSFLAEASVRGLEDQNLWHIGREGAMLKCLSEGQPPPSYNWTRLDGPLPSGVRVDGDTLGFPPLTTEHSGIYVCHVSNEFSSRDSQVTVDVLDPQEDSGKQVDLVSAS


Assays:
[1] = target: T1, N-terminal Flag-tagged human Nectin-4 …; test: flow cytometry on MDA-MB231 cells transfected with N-terminal Flag-tagged Nectin-4 (FIG. 1)
[2] = target: T2, human Nectin-4 on cells (CHO cells …); test: flow cytometry on normal differentiated human keratinocytes (NHEK), 8 pM-33 nM (FIG. 15); reference antibody of the comparison
[3] = target: T3, Nectin-4 IgV-like domain Fc fusion …; test: ELISA, plate coated with Nec4-V, peroxidase-conjugated Ch-15A7.5 (FIG. 2)
[4] = target: T4, Nectin-1 extracellular domain Fc fusion …; test: ELISA, plate coated with Nec1-VCC, peroxidase-conjugated Ch-15A7.5 (FIG. 2)
[5] = target: T5, Nectin-4 extracellular domain Fc fusion …; test: ELISA, plate coated with Nec4-VCC, peroxidase-conjugated Ch-15A7.5 (FIG. 2)
[6] = target: T2, human Nectin-4 on cells (CHO cells …); test: flow cytometry on normal differentiated human keratinocytes (NHEK), 8 pM-33 nM (FIG. 15)

binding result [1]	binding result [2]	binding result [3]	binding result [4]	binding result [5]	binding result [6]	Binder
binds	binds	–	–	–	–	Ch-5A12.2 (chimeric form of the anti-Nectin-4 monoclonal antibody 5A12.2) (antibody, V domains shown, also called 5A12.2 mAb) VH: QIQLQQSGAELVKPGASVTLSCKTSGFTFNSMYISWLKQKPGQSLEWIAWIYAGTGGTRFNQKFTGKVQLTVDTSSSTAYMQFSSLTTDDSAIYYCAIRSGFVPMDYWGQGTSVTVSS VL: SIVMTQTPKFLLVSAGDRVTITCKASQSVSNDVAWYQQKPGQSPKLLIYYASNRYTGVPDRFTGSGYGTDFTFTISTVQAEDLAVYFCQQDYSSPWTFGGGTKLEIK
binds	–	binds	no binding (tested: 10 nM)	binds	binds	Ch-15A7.5 (chimeric form of the anti-Nectin-4 monoclonal antibody 15A7.5) (antibody, V domains shown, also called 15A7.5 mAb) VH: EVKLVESGGGLVQPGGSRKLSCAASGFTFSNYGMAWVRQAPGKGPEWVAFISNLAYGINYADTVTGRFTISRENAKNTLYLEMRSLRSEDTAMYYCARGARATGWFAYWGQGTLVTVSA VL: DIVMTQSQKFMSTSIGDRVSVTCKASQNVDTHVAWYQEKPGQSPKALIYSASYRYSGVPDRFTGSGSGTDFTLTISNVQSEDLADYFCQQYNSYPLTFGGGTKLEIK
